The term bioavailability denotes the share of a dose that reaches the circulation, judged against a reference dose that is usually intravenous. Higher therefore signals good availability. Usually AUC(0-inf) stands for total exposure, with the tail of the curve extrapolated. The low end stands for low exposure, the high end for high exposure. Usually Cmax stands for the highest concentration seen after dosing. A word on the Tmax: it is the time at which the peak concentration occurs.

A short description of the series: Rodent pharmacokinetics of PIE12-trimer and conjugates (Table 3 protocol). In kind it is in vivo, Sprague Dawley rats. Particulars: rats; for bioavailability: Sprague Dawley; for bioavailability / AUC(0-inf) / C0 / clearance / half-life / Vd / Cmax / Tmax: rat; for AUC(0-inf) / C0 / clearance / half-life / Vd / Cmax / Tmax: in vivo; for clearance: read-out: Cl (obs) (converted); for half-life: read-out: T1/2 (converted); for Vd: read-out: Vz (obs). As to the method:
At each timepoint, plasma was obtained using lithium heparin.
Samples were spiked with an internal standard then precipitated with two volumes of 98% acetonitrile/2% Formic acid. Supernatants were analyzed by LC/MS/MS using an Agilent HPLC system (Waters X-Bridge BEH C18 column) paired to an AB Sciex API 3000 triple-quad mass spectrometer using MRM methods. Lipid conjugates required lower source temperatures (300° C. vs 500° C.) for improved reproducibility.

Like-named read-outs stand apart in the source and are kept apart here.

As for `CCCCCCCCCCCCCCCCSC1CC(=O)N(CCC(=O)NCCOCCOCCOCCOCCOCCOCCOCCOCCOCCOCCOCCOCCOCCOCCOCCOCCOCCOCCOCCOCCOCCOCCOCCOCCC(=O)NC(COCCC(=O)NCCOCCOCCOCCOCCC(=O)NCCCC[C@@H](NC(=O)CNC(=O)[C@@H](CC(C)C)NC(=O)[C@@H](CCC(=O)O)NC(=O)[C@H]2CSSC[C@@H](NC(=O)[C@H]3CCCN3C(=O)[C@@H](Cc3c[nH]cn3)NC(C)=O)C(=O)N[C@H](CC(=O)O)C(=O)N[C@H](Cc3ccc(O)cc3)C(=O)N3CCC[C@@H]3C(=O)N[C@H](CCC(=O)O)C(=O)N[C@H](Cc3c[nH]c4ccccc34)C(=O)N[C@H](CCC(N)=O)C(=O)N[C@H](Cc3c[nH]c4ccccc34)C(=O)N[C@H](CC(C)C)C(=O)N2)C(N)=O)(COCCC(=O)NCCOCCOCCOCCOCCC(=O)NCCCC[C@@H](NC(=O)CNC(=O)[C@@H](CC(C)C)NC(=O)[C@@H](CCC(=O)O)NC(=O)[C@H]2CSSC[C@@H](NC(=O)[C@H]3CCCN3C(=O)[C@@H](Cc3c[nH]cn3)NC(C)=O)C(=O)N[C@H](CC(=O)O)C(=O)N[C@H](Cc3ccc(O)cc3)C(=O)N3CCC[C@@H]3C(=O)N[C@H](CCC(=O)O)C(=O)N[C@H](Cc3c[nH]c4ccccc34)C(=O)N[C@H](CCC(N)=O)C(=O)N[C@H](Cc3c[nH]c4ccccc34)C(=O)N[C@H](CC(C)C)C(=O)N2)C(N)=O)COCCC(=O)NCCOCCOCCOCCOCCC(=O)NCCCC[C@@H](NC(=O)CNC(=O)[C@@H](CC(C)C)NC(=O)[C@@H](CCC(=O)O)NC(=O)[C@H]2CSSC[C@@H](NC(=O)[C@H]3CCCN3C(=O)[C@@H](Cc3c[nH]cn3)NC(C)=O)C(=O)N[C@H](CC(=O)O)C(=O)N[C@H](Cc3ccc(O)cc3)C(=O)N3CCC[C@@H]3C(=O)N[C@H](CCC(=O)O)C(=O)N[C@H](Cc3c[nH]c4ccccc34)C(=O)N[C@H](CCC(N)=O)C(=O)N[C@H](Cc3c[nH]c4ccccc34)C(=O)N[C@H](CC(C)C)C(=O)N2)C(N)=O)C1=O` (stereo partly shown) [C16-PIE12-Trimer], under “SC, 1.0 mg/kg, plasma, median”, the bioavailability came to 38%, the AUC(0-inf) was 0.442 µM·h, the peak level (Cmax) was 192 nM and the Tmax is 1 h. For the same molecule, the half-life (SC, 1.0 mg/kg, plasma, median) is 1.18 h. Further, where the note is “IV, 1.0 mg/kg, plasma, median”, the AUC(0-inf) was 1.16 µM·h, the C0 came out at 1880 nM, the clearance is 1.67 mL/min/kg and the half-life is 0.93 h. The Vd (IV, 1.0 mg/kg, plasma, median) came to 0.14 L/kg.

Turning to `CCCCCCCCCCCCCCCCCCSC1CC(=O)N(CCC(=O)NCCOCCOCCOCCOCCOCCOCCOCCOCCOCCOCCOCCOCCOCCOCCOCCOCCOCCOCCOCCOCCOCCOCCOCCOCCC(=O)NC(COCCC(=O)NCCOCCOCCOCCOCCC(=O)NCCCC[C@@H](NC(=O)CNC(=O)[C@@H](CC(C)C)NC(=O)[C@@H](CCC(=O)O)NC(=O)[C@H]2CSSC[C@@H](NC(=O)[C@H]3CCCN3C(=O)[C@@H](Cc3c[nH]cn3)NC(C)=O)C(=O)N[C@H](CC(=O)O)C(=O)N[C@H](Cc3ccc(O)cc3)C(=O)N3CCC[C@@H]3C(=O)N[C@H](CCC(=O)O)C(=O)N[C@H](Cc3c[nH]c4ccccc34)C(=O)N[C@H](CCC(N)=O)C(=O)N[C@H](Cc3c[nH]c4ccccc34)C(=O)N[C@H](CC(C)C)C(=O)N2)C(N)=O)(COCCC(=O)NCCOCCOCCOCCOCCC(=O)NCCCC[C@@H](NC(=O)CNC(=O)[C@@H](CC(C)C)NC(=O)[C@@H](CCC(=O)O)NC(=O)[C@H]2CSSC[C@@H](NC(=O)[C@H]3CCCN3C(=O)[C@@H](Cc3c[nH]cn3)NC(C)=O)C(=O)N[C@H](CC(=O)O)C(=O)N[C@H](Cc3ccc(O)cc3)C(=O)N3CCC[C@@H]3C(=O)N[C@H](CCC(=O)O)C(=O)N[C@H](Cc3c[nH]c4ccccc34)C(=O)N[C@H](CCC(N)=O)C(=O)N[C@H](Cc3c[nH]c4ccccc34)C(=O)N[C@H](CC(C)C)C(=O)N2)C(N)=O)COCCC(=O)NCCOCCOCCOCCOCCC(=O)NCCCC[C@@H](NC(=O)CNC(=O)[C@@H](CC(C)C)NC(=O)[C@@H](CCC(=O)O)NC(=O)[C@H]2CSSC[C@@H](NC(=O)[C@H]3CCCN3C(=O)[C@@H](Cc3c[nH]cn3)NC(C)=O)C(=O)N[C@H](CC(=O)O)C(=O)N[C@H](Cc3ccc(O)cc3)C(=O)N3CCC[C@@H]3C(=O)N[C@H](CCC(=O)O)C(=O)N[C@H](Cc3c[nH]c4ccccc34)C(=O)N[C@H](CCC(N)=O)C(=O)N[C@H](Cc3c[nH]c4ccccc34)C(=O)N[C@H](CC(C)C)C(=O)N2)C(N)=O)C1=O` (stereo partly shown) [C18-PIE12-trimer], for the setting “SC, 1.0 mg/kg, plasma, median”, the bioavailability was found to be 93%, the AUC(0-inf) was determined as 0.713 µM·h, the Cmax is 196 nM and the Tmax was 2 h. Besides, the half-life (SC, 1.0 mg/kg, plasma, median) was 1.39 h. Also, where the note is “IV, 1.0 mg/kg, plasma, median”, the AUC(0-inf) was 0.766 µM·h, the C0 stood at 900 nM, the clearance was 2.5 mL/min/kg and the half-life is 1.05 h. Moreover, the Vd (IV, 1.0 mg/kg, plasma, median) was 0.23 L/kg.

For the molecule `CCCCCCCCCCCCCCCC(=O)N[C@H](CSC1CC(=O)N(CCC(=O)NCCOCCOCCOCCOCCOCCOCCOCCOCCOCCOCCOCCOCCOCCOCCOCCOCCOCCOCCOCCOCCOCCOCCOCCOCCC(=O)NC(COCCC(=O)NCCOCCOCCOCCOCCC(=O)NCCCC[C@@H](NC(=O)CNC(=O)[C@@H](CC(C)C)NC(=O)[C@@H](CCC(=O)O)NC(=O)[C@H]2CSSC[C@@H](NC(=O)[C@H]3CCCN3C(=O)[C@@H](Cc3c[nH]cn3)NC(C)=O)C(=O)N[C@H](CC(=O)O)C(=O)N[C@H](Cc3ccc(O)cc3)C(=O)N3CCC[C@@H]3C(=O)N[C@H](CCC(=O)O)C(=O)N[C@H](Cc3c[nH]c4ccccc34)C(=O)N[C@H](CCC(N)=O)C(=O)N[C@H](Cc3c[nH]c4ccccc34)C(=O)N[C@H](CC(C)C)C(=O)N2)C(N)=O)(COCCC(=O)NCCOCCOCCOCCOCCC(=O)NCCCC[C@@H](NC(=O)CNC(=O)[C@@H](CC(C)C)NC(=O)[C@@H](CCC(=O)O)NC(=O)[C@H]2CSSC[C@@H](NC(=O)[C@H]3CCCN3C(=O)[C@@H](Cc3c[nH]cn3)NC(C)=O)C(=O)N[C@H](CC(=O)O)C(=O)N[C@H](Cc3ccc(O)cc3)C(=O)N3CCC[C@@H]3C(=O)N[C@H](CCC(=O)O)C(=O)N[C@H](Cc3c[nH]c4ccccc34)C(=O)N[C@H](CCC(N)=O)C(=O)N[C@H](Cc3c[nH]c4ccccc34)C(=O)N[C@H](CC(C)C)C(=O)N2)C(N)=O)COCCC(=O)NCCOCCOCCOCCOCCC(=O)NCCCC[C@@H](NC(=O)CNC(=O)[C@@H](CC(C)C)NC(=O)[C@@H](CCC(=O)O)NC(=O)[C@H]2CSSC[C@@H](NC(=O)[C@H]3CCCN3C(=O)[C@@H](Cc3c[nH]cn3)NC(C)=O)C(=O)N[C@H](CC(=O)O)C(=O)N[C@H](Cc3ccc(O)cc3)C(=O)N3CCC[C@@H]3C(=O)N[C@H](CCC(=O)O)C(=O)N[C@H](Cc3c[nH]c4ccccc34)C(=O)N[C@H](CCC(N)=O)C(=O)N[C@H](Cc3c[nH]c4ccccc34)C(=O)N[C@H](CC(C)C)C(=O)N2)C(N)=O)C1=O)C(=O)O` (stereo partly shown) [Palm-PIE12-trimer], where the note is “IV, 1.2 mg/kg, plasma, median”, the AUC(0-inf) came to 2.24 µM·h, the C0 was 2240 nM, the clearance was 1.02 mL/min/kg and the half-life is 1.83 h. In addition, the Vd (IV, 1.2 mg/kg, plasma, median) was determined as 0.14 L/kg. Also, under “SC, 1.2 mg/kg, plasma, median”, the area under the curve AUC(0-inf) was found to be 2.31 µM·h, the Cmax was determined as 585 nM, the Tmax amounted to 1 h and the half-life is 2.23 h. This molecule had a F (SC, 1.2 mg/kg, plasma, median) of 103%. For the same molecule, for the setting “IV”, the “increase of IV half-life vs PIE12-trimer” value is on record as more than 3 fold and the “reduction of clearance vs PIE12-trimer” value was approximately 14 fold. Also, under “SC”, the “bioavailability upon SC dosing, in words” value is on record as “fully bioavailable”. The “extension of SC (apparent) half-life vs PIE12-trimer” value (SC, terminal phase elimination) was approximately 3 fold.

These data come from US10487121B2, “D-peptide inhibitors of HIV entry and methods of use” (priority 2016, dated 2019).
